The values that follow come from patent publication US20230272051A1 (CENTIVAX, published 2023).

A value given as a limit tells only on which side of the number the result lay.

By Kd is commonly meant the concentration at which binding is half-saturated. Low values mean tighter binding, high ones weaker binding. As usually defined, the koff is the rate constant with which the complex falls apart. Read a low koff as slow dissociation. Broadly, the kon is a measure of how fast the partners come together. Low values mean slower complex formation, high ones faster complex formation.

The target of experiment [1] is SARS-CoV-2 spike protein (on pseudovirus) (SARS-CoV-2, UniProt P0DTC2 14-1273). As to the kind of experiment: cell-based or functional assay.
Experiment [2] deals with T1, SARS-CoV-2 Receptor Binding Domain (RBD) protein (SARS-CoV-2, UniProt P0DTC2 319-541).
T1 construct: also called Sars-Cov-2 (COV2)
As to the kind of experiment: SPR (Carterra LSA); scFv captured by anti-V5, RBD as analyte.

For experiment [3], the target named is T1, SARS-CoV-2 Receptor Binding Domain …. As to the kind of experiment: SPR (Carterra LSA).

B1: COVID19_P01_H06 (scFv, V domains shown)
VH: QVQLVQSGAEVKKPGSSVKVSCKASGYTFTSYYMHWVRQAPGQGLEWMGLIDPSGGTTSYAQKFQGRVTITADESTSTAYMELSSLRSEDTAVYYCVWDTVMGGMDVWGQGTLVTVSS
VL: SYVLTQPPSVSVAPGKTAARITCGGNNIGSKSVHWYQQKPGQAPVLVIYKDGERPSGIPERFSGSNSRNTATLTISRVEAGDEADYYCQVWDSSSLYVFGGGTKLTVLA
For the molecule B1, the “IC50 [µg/mL] pseudotyped lenti neutralization” value (shortened to “IC50”) in experiment [1] is 2.1 µg/mL. In experiment [2], this molecule showed a dissociation constant (Kd) of 1.31 nM, a koff of 0.000621 s⁻¹ and an association rate constant (kon) of 474000 M⁻¹ s⁻¹.

B2: COVID19_P01_H05 (scFv, V domains shown)
VH: QVQLVQSGAEVKKPGSSVKVSCKASGGTFSNFALTWVRQAPGQGLEWMGLINPSGGSTSYAQRFQGRVTITADESTSTAYMELSSLRSEDTAVYYCARDSVMGGMDVWGQGTLVTVSS
VL: SSYVLTQPPSVSVAPGKTARITCGGNNIGSKSVHWYQQKPGQAPVLVIYYDSDRPSGIPERFSGSNSGNTATLTISRVEAGDEADYYCQVWASSSDYVFGGGTKLTVLA
B2: the “IC50” value in experiment [1] is 35 µg/mL. Also, in experiment [3], the Kd is less than 50 nM. In experiment [2], this molecule gave a Kd of 1.11 nM, an off-rate constant (koff) of 0.000468 s⁻¹ and an on-rate constant (kon) of 423000 M⁻¹ s⁻¹.

B3: COVID19_P14_F06 (scFv, V domains shown)
VH: QVQLVQSGAEVKKPGSSVKVSCKASGGTFSSFAIIWVRQAPGQGLEWMALINPSSGTTSYAQKFQGRVTITADESTSTAYMELSSLRSEDTAVYYCARETVMGGMDVWGQGTLVTVSS
VL: SSYVLTQPPSVSVAPGKTARITCGGNNIGSKSVHWYQQKPGQAPVLVIYYDSDRPSGIPERFSGSNSGNTATLTISRVEAGDEADYYCQVWDSSSHYVFGGGTKLTVLA
B3: in experiment [3], the Kd was less than 50 nM. In experiment [2], this molecule gave a Kd of 48.3 nM, a dissociation rate constant (koff) of 0.0024 s⁻¹ and a kon of 49700 M⁻¹ s⁻¹.

B4: COVID19_P14_F07 (scFv, V domains shown)
VH: QVQLVQSGAEVKKPGSSVKVSCKASGGTFSSYAISWMRQAPGQGLEWMGWINPNSGGTNYAQKFQGRVTITADESTSTAYMELSNLRSEDTAVYYCARDTYWGGMDVWGQGTLVTVSS
VL: SSYVLTQPPSVSVAPGKTARITCGGNNIGSKSVHWYQQKPGQAPVLVIYYDSDRPSGIPERFSGSNSGNTATLTISRVEAGDEADYYCQVWDSSSFYVFGGGTKLTVLA
Molecule B4 showed a Kd in experiment [3] of less than 50 nM. In experiment [2], the affinity, expressed as Kd, was 17 nM; the koff turned out to be 0.00245 s⁻¹; the kon was determined as 144000 M⁻¹ s⁻¹.

B5: COVID19_P14_H10 (scFv, V domains shown)
VH: QVQLVQSGAEVKKPGSSVKVSCKASGGSFSRFPISWVRQAPGQGLEWMGGIIPIFGTANYAQRFQGRVTITADESTSTAYMELSSLRSEDTAVYYCALETVMGGLQVWGQGTLVTVSS
VL: SSYVLTQPPSVSVAPGKTARITCGGNNIGSKSVHWYQQKPGQAPVLVIYYDSDRPSGIPERFSGSNSGNTATLTISRVEAGDEADYYCQVWDSSSDYVFGGGTKLTVLA
Molecule B5 returned an equilibrium dissociation constant (Kd) in experiment [3] of less than 50 nM. Besides, in experiment [2], the Kd is 28.3 nM, the dissociation rate constant (koff) worked out at 0.01 s⁻¹ and the kon was 355000 M⁻¹ s⁻¹.

B6: COVID19_P13_H07 (scFv, V domains shown)
VH: QVQLVQSGAEVKKPGSSVKVSCKASGYTFINYDINWVRQAPGQGLEWMGGITPIFGTAKYAQKFQGRVTITADESTSTAYMELSSLRSEDTAVYYCARDTVMGGMDVWGQGTLVTVSS
VL: SSYVLTQPPSVSVAPGKTARITCGGNNIGSKSVHWYQQKPGQAPVLVIYYDSDRPSGIPERFSGSNSGNTATLTISRVEAGDEADYYCQVWDSSSDYVFGGGTKLTVLA
On to B6, for which, in experiment [1], the “IC50” value was found to be 15 µg/mL. For the same molecule, the Kd in experiment [3] is less than 50 nM. In experiment [2], this molecule yielded a dissociation constant (Kd) of 1.92 nM, an off-rate (koff) of 0.00031 s⁻¹ and a kon of 160000 M⁻¹ s⁻¹.

B7: COVID19_P01_H07 (scFv, V domains shown)
VH: QVQLVQSGAEVKKPGSSVKVSCKASGYSFNNYDLHWVRQAPGQGLEWMGGIIPIFDTANYAQKFQGRVTITADESTSTAYMELSSLRSEDTAVYYCALETVMGGMVKWGQGTLVTVSS
VL: SSYVLTQPPSVSVAPGKTARITCGGNNIGSKSVHWYQQKPGQAPVLVIYYDSDRPSGIPERFSGSNSGNTATLTISRIEAGDEADYYCQVWDSSGDYVFGGGTKLTVLA
As for B7, the “IC50” value in experiment [1] is 6.5 µg/mL. Moreover, in experiment [2], binding was characterised by a dissociation constant (Kd) of 0.81 nM, the off-rate (koff) was found to be 0.000401 s⁻¹ and the kon was 496000 M⁻¹ s⁻¹.
